# In IntAct's records for PubMed 19277847:
# B1: Junctophilin-2 (Mus musculus), Q9ET78 (parent)
# chain: MSGGRFDFDDGGAYCGGWEGGKAHGHGLCTGPKGQGEYSGSWNFGFEVAGVYTWPSGNTFEGYWSQGKRHGLGIETKGRWLYKGEWTHGFKGRYGIRQSTNSGAKYEGTWNNGLQDGYGTETYADGGTYQGQFTNGMRHGYGVRQSVPYGMAVVVRSPLRTSLSSLRSEHSNGTVAPDSPAADGPMLPSPPVPRGGFALTLLATAEAARPQGLFTRGTLLGRLRRSESRTSLGSQRSRLSFLKSELSSGASDAASTGSLAEGAEGPDDAAAPFDADIDATTTETYMGEWKNDKRSGFGVSERSSGLRYEGEWLDNLRHGYGRTTLPDGHREEGKYRHNVLVKGTKRRVLPLKSSKVRQKVEHGVEGAQRAAAIARQKAEIAASRTSHAKAKAEAAEQAALAANQESNIARTLAKELAPDFYQPGPEYQKRRLLQEILENSESLLEPPERGLGTGLPERPRESPQLHERETPQPEGGPPSPAGTPPQPKRPRPGASKDGLLSPGSWNGEPGGEGSRPATPSDGAGRRSPARPASEHMAIEALQPPPAPSQEPEVAMYRGYHSYAVRTGPPEPPPLEDEQEPEPEPEPEVRRSDSAPPSPVSATVPEEEPPAPRSPVPAKQATLEPKPIVPKAEPKAKARKTEARGLSKAGAKKKGRKEVAQAKEAEVEVEEVPNTVLICMVILLNIGLAILFVHLLT
# partner: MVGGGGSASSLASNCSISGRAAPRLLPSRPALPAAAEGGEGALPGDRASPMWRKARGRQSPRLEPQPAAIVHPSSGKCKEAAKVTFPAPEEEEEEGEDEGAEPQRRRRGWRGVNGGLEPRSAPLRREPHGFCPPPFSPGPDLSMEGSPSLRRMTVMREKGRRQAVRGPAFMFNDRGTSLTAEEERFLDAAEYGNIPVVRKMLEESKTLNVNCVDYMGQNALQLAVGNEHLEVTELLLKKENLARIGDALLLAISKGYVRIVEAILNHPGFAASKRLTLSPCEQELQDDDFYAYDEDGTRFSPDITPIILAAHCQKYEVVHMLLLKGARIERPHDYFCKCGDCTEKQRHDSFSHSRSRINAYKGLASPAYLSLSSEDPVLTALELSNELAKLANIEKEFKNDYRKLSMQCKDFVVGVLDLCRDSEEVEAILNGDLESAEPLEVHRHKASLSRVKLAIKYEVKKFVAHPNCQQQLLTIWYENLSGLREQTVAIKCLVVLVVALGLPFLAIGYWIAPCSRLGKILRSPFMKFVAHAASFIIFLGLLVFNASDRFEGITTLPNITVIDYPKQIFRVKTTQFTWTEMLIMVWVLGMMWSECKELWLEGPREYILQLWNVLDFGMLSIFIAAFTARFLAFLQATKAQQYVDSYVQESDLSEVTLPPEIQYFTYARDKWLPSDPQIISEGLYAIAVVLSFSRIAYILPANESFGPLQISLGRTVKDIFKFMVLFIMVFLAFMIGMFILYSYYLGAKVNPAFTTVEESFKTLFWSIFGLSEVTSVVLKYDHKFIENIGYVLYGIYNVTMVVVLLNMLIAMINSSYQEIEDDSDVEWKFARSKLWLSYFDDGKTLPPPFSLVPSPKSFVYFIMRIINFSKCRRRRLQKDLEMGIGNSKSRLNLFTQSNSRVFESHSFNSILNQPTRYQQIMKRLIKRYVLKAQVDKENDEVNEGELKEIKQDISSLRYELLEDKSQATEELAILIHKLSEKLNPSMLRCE
# Variants of: B1
# Details: with TRPC3, G1U2U3
row,effect of a mutation on the interaction,Variant
1,decreasing interaction,R222A
2,decreasing interaction,R216A
3,decreasing interaction,E227A
